This is an account of results in article PMC2192122.

For one assay, the target named is MHC class II molecule I-Ad (mouse (endogenous in A20 lymphoma cells)). Nature of the assay: radioligand binding.
Conditions: not given
The molecule “OVA peptide 323-339 (unlabeled) (from UniProt P01012 324-340)” returned an IC50 of 131 nM.

Staying with this assay, now noted: scale: relative to unlabeled OVA peptide 323-339.
Take “SWM peptide 105-116-[G108] (from UniProt P02185 106-117)”: the relative binding to MHC stood at 0.1. Molecule AIIHVLHSRHPG [sperm whale myoglobin (SWM) peptide 110-121] registered a relative binding to MHC of 0.59. As for IKYLEFIGEAII [SWM peptide 101-112-[G108]], the relative binding to MHC is 0.003.

LEFIGEAIIHVL [SWM peptide 104-115-[G108]] yielded a relative binding to MHC of 0.013. The molecule YLEFIGEAIIHV [SWM peptide 103-114-[G108]] had a relative binding to MHC of 0.04. Take EFISEAIIPVLH [SWM peptide 105-116-[P113]]: the relative binding to MHC stood at 1.8. On the same count and under the same terms, as for EFISEAIIHLLH [SWM peptide 105-116-[L114]], the figure is 0.18; as for EFISEAIIHVLH [sperm whale myoglobin (SWM) peptide 105-116], 1.5. On to EFGSEAIIHVLH [SWM peptide 105-116-[G107]], for which the relative binding to MHC stood at 0.34.

Turning to EFISEAIIHILH [SWM peptide 105-116-[I114]], the relative binding to MHC was 0.01. Molecule KYLEFIGEAIIH [SWM peptide 102-113-[G108]] registered a relative binding to MHC of 0.011.

Broadly, the IC50 is the concentration needed to halve the response being measured.
